Source: patent publication US7084111 (UNIVERSITY OF FLORIDA RESEARCH FOUNDATION, dated 2006)
Bridges are numbered along the chain shown (N, C = ends). [ ]: non-standard residue; d: D form. Nle = CCCC[C@H](N)C(=O)O; Dap = NC[C@H](N)C(=O)O

B1: SEQ ID NO:11 (Ac-Ser-Tyr-Ser-Nle-Tyr-c[Asp-Arg-Phe-Phe-Asn-Ala-Phe-Dpr]-Tyr-Lys-Pro-Val) (peptide)
peptide: Ac-SYS[Nle]YDRFFNAF[Dap]YKPV-NH2
modifications: lactam 6-13
SMILES: CCCC[C@H](NC(=O)[C@H](CO)NC(=O)[C@H](Cc1ccc(O)cc1)NC(=O)[C@H](CO)NC(C)=O)C(=O)N[C@@H](Cc1ccc(O)cc1)C(=O)N[C@H]1CC(=O)NC[C@@H](C(=O)N[C@@H](Cc2ccc(O)cc2)C(=O)N[C@@H](CCCCN)C(=O)N2CCC[C@H]2C(=O)N[C@H](C(N)=O)C(C)C)NC(=O)[C@H](Cc2ccccc2)NC(=O)[C@H](C)NC(=O)[C@H](CC(N)=O)NC(=O)[C@H](Cc2ccccc2)NC(=O)[C@H](Cc2ccccc2)NC(=O)[C@H](CCCNC(=N)N)NC1=O
B2: SEQ ID NO:13 (Ac-Ser-Tyr-Ser-Nle-Glu-Phe-Phe-Arg-Gly-Lys-Pro-Val) (peptide)
peptide: Ac-SYS[Nle]EFFRGKPV-NH2
SMILES: CCCC[C@H](NC(=O)[C@H](CO)NC(=O)[C@H](Cc1ccc(O)cc1)NC(=O)[C@H](CO)NC(C)=O)C(=O)N[C@@H](CCC(=O)O)C(=O)N[C@@H](Cc1ccccc1)C(=O)N[C@@H](Cc1ccccc1)C(=O)N[C@@H](CCCNC(=N)N)C(=O)NCC(=O)N[C@@H](CCCCN)C(=O)N1CCC[C@H]1C(=O)N[C@H](C(N)=O)C(C)C
B3: SEQ ID NO:19 (Ac-Nle-c[Asp-His-Ala-Ala-Ala-Lys]) (peptide)
peptide: Ac-[Nle]DHAAAK-NH2
modifications: lactam 2-7
SMILES: CCCC[C@H](NC(C)=O)C(=O)N[C@H]1CC(=O)NCCCC[C@@H](C(N)=O)NC(=O)[C@H](C)NC(=O)[C@H](C)NC(=O)[C@H](C)NC(=O)[C@H](Cc2c[nH]cn2)NC1=O
B4: SEQ ID NO:20 (Ac-Nle-c[Asp-His-Arg-Phe-Phe-Lys]) (peptide)
peptide: Ac-[Nle]DHRFFK-NH2
modifications: lactam 2-7
SMILES: CCCC[C@H](NC(C)=O)C(=O)N[C@H]1CC(=O)NCCCC[C@@H](C(N)=O)NC(=O)[C@H](Cc2ccccc2)NC(=O)[C@H](Cc2ccccc2)NC(=O)[C@H](CCCNC(=N)N)NC(=O)[C@H](Cc2c[nH]cn2)NC1=O
B5: SEQ ID NO:15 (Ac-Ser-Tyr-Ser-Nle-Glu-His-Arg-Phe-Phe-Gly-Lys-Pro-Val) (peptide)
peptide: Ac-SYS[Nle]EHRFFGKPV-NH2
B6: SEQ ID NO:14 (Ac-Ser-Tyr-Ser-Nle-Glu-His-Phe-Phe-Arg-Gly-Lys-Pro-Val) (peptide)
peptide: Ac-SYS[Nle]EHFFRGKPV-NH2
SMILES: CCCC[C@H](NC(=O)[C@H](CO)NC(=O)[C@H](Cc1ccc(O)cc1)NC(=O)[C@H](CO)NC(C)=O)C(=O)N[C@@H](CCC(=O)O)C(=O)N[C@@H](Cc1c[nH]cn1)C(=O)N[C@@H](Cc1ccccc1)C(=O)N[C@@H](Cc1ccccc1)C(=O)N[C@@H](CCCNC(=N)N)C(=O)NCC(=O)N[C@@H](CCCCN)C(=O)N1CCC[C@H]1C(=O)N[C@H](C(N)=O)C(C)C
B7: SEQ ID NO:12 (Ac-Ser-Tyr-Ser-Nle-Glu-His-Ala-Ala-Ala-Gly-Lys-Pro-Val) (peptide)
peptide: Ac-SYS[Nle]EHAAAGKPV-NH2
SMILES: CCCC[C@H](NC(=O)[C@H](CO)NC(=O)[C@H](Cc1ccc(O)cc1)NC(=O)[C@H](CO)NC(C)=O)C(=O)N[C@@H](CCC(=O)O)C(=O)N[C@@H](Cc1c[nH]cn1)C(=O)N[C@@H](C)C(=O)N[C@@H](C)C(=O)N[C@@H](C)C(=O)NCC(=O)N[C@@H](CCCCN)C(=O)N1CCC[C@H]1C(=O)N[C@H](C(N)=O)C(C)C

Target: mouse melanocortin-5 receptor (mouse, UniProt P41149 1-325)
Sequence (P41149 whole entry): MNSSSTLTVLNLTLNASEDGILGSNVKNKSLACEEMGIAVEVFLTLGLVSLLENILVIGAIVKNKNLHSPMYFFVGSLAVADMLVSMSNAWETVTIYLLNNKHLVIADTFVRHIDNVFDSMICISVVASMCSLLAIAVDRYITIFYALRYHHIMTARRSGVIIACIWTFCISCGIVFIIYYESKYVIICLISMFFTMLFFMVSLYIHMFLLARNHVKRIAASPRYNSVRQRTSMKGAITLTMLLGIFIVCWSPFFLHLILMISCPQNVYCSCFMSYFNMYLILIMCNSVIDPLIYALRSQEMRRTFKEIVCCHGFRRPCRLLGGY
Assay: cell-based or functional assay

EC50 (agonist) [µM] | EC50 (agonist; Partial agonist) [µM] | Binder
> 100 | – | B1
> 100 | – | B2
> 100 | – | B3
> 100 | – | B4
0.327 | – | B5
– | 24.4 | B6
> 100 | – | B7

Target: mouse melanocortin-3 receptor (mouse, UniProt P33033 1-323)
Sequence (P33033 whole entry): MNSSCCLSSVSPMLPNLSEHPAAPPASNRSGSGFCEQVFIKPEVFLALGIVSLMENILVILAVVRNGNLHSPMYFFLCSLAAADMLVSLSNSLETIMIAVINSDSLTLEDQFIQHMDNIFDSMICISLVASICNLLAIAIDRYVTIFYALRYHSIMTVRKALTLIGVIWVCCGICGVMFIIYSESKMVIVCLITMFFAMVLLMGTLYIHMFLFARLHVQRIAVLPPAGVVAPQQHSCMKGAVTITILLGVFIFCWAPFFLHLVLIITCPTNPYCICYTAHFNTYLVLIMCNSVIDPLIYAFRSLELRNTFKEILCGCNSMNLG
Assay: cell-based or functional assay

pA2 (antagonist) | EC50 (agonist) [µM] | EC50 (agonist; Partial agonist) [µM] | Binder
6.2 | – | – | B1
– | > 100 | – | B2
– | > 100 | – | B3
– | > 100 | – | B4
– | 0.48 | – | B5
– | – | 20.5 | B6
– | > 100 | – | B7

Target: mouse melanocortin-1 receptor (mouse, UniProt Q01727 1-315)
Sequence (Q01727 whole entry): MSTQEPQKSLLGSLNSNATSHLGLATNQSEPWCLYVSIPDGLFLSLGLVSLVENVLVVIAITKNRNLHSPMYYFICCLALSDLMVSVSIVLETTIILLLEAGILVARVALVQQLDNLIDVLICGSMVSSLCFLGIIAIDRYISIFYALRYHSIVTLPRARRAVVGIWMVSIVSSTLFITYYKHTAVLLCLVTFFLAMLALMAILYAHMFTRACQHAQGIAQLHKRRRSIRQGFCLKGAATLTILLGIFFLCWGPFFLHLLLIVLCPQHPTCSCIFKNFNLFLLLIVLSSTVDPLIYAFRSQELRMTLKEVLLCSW
Assay: cell-based or functional assay

EC50 (agonist) [nM] | EC50 (agonist; Partial agonist) [µM] | Binder
1960 | – | B1
– | 19.9 | B2
> 100000 | – | B3
– | 38.3 | B4
59.9 | – | B5
– | 7.22 | B6
> 100000 | – | B7

Target: mouse melanocortin-4 receptor (mouse, UniProt P56450 1-332)
Sequence (P56450 whole entry): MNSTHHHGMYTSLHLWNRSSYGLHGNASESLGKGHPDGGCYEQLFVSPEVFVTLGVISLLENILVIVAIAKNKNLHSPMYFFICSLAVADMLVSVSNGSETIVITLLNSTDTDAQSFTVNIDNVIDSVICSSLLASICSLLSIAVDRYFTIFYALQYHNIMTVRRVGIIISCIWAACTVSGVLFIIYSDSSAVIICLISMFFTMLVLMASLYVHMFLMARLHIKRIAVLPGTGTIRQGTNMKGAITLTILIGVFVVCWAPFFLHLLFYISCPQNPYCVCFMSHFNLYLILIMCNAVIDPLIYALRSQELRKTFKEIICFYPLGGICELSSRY
Assay: cell-based or functional assay

pA2 (antagonist) | EC50 (agonist) [µM] | Binder
6.2 | – | B1
– | > 100 | B2
– | > 100 | B3
– | > 100 | B4
– | 0.93 | B5
– | > 100 | B6
– | > 100 | B7
